Laboratory results taken from the supplement of paper PMC7125110.
± gives the standard error. Variants at the floor of the assay were thinned out.

B1: glmS ribozyme (parent)
chain: AUAAAAGCGCCAGAACUACAGAAAUGUAGUUGACGAGGAGGAGGUUUAUCGAAUUUUCGGCGGAUGCCUCCAAA

Variants of: B1
Assay: self-cleavage kobs at 2500 uM GlcN6P; higher = faster cleavage; RNA array
Conditions: with glucosamine-6-phosphate
Procedure, shortened: (§1)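 Barcoded glmS ribozyme variants on sequenced MiSeq chips were transcribed in situ by E. coli RNA polymerase and tracked through a hybridised Cy3 probe at 37 °C. Glucosamine-6-phosphate (40 μM to 10 mM) in HEPES/KCl/Mg(OAc)2 buffer was flowed in, and tiles were imaged over ~14 h. Signals were normalised to baseline and to non-cleaving reference variants; per-tile medians were fit to one- or two-exponential decays to give kobs. kcat and KM came from weighted Michaelis–Menten fits across concentrations.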

Point of comparison: C11A A12U G40U, “self-cleavage kobs at 2500 uM GlcN6P” value 4.18e-05 ± 2.1e-05 s⁻¹. Against it:
- G7U C11U G13C A36U U56A — lower, < 1e-05 s⁻¹
- C8G U69G — lower, < 1e-05 s⁻¹
- A12U G41U A48U — within error, 7.03e-05 ± 3e-05 s⁻¹
- G7U C16U U46G — lower, < 1e-05 s⁻¹
- C11G A15C U45C C68G — lower, < 1e-05 s⁻¹
- C8U C11U A12U A36C A39G — lower, < 1e-05 s⁻¹
- G7U G43C A53U A64G — lower, < 1e-05 s⁻¹
- G9A U56G G60A — lower, < 1e-05 s⁻¹
- G9U A39U A48U C50A U57C G66A — lower, < 1e-05 s⁻¹
- A12G C34U C68A — lower, < 1e-05 s⁻¹
- C8U C58G C70U — lower, < 1e-05 s⁻¹
- C10U A53G G66U C68G — within error, 4.34e-05 ± 1.4e-05 s⁻¹
- G7C G37A G63U — lower, < 1e-05 s⁻¹
- C11A U65G C70G C71A — 4.5-fold higher, 0.000187 ± 6.3e-05 s⁻¹
- A12C U30A C50U G51C — lower, < 1e-05 s⁻¹
- A12G U31C U54C — within error, 3.97e-05 ± 1.2e-05 s⁻¹
- G7U C8U G32U C50U — lower, < 1e-05 s⁻¹
- A12U A15C G44U — within error, 4.81e-05 ± 1.7e-05 s⁻¹
- C11A G29U C58A — lower, < 1e-05 s⁻¹
- G9A G29C G38C A64U — lower, < 1e-05 s⁻¹
- G7U U55C C71A — lower, < 1e-05 s⁻¹
- C10U A36G G41U G59U C68A — lower, < 1e-05 s⁻¹
- C8A U46G U55A — lower, < 1e-05 s⁻¹
- C10A A12U U31G U46C — lower, < 1e-05 s⁻¹
- C11U G40A U49C G59C — lower, < 1e-05 s⁻¹
- C11G G29U A48U G51U C71G — 12-fold higher, 0.000485 ± 0.00016 s⁻¹
- C11U G40U A42U G44A — lower, < 1e-05 s⁻¹
- C10U A12G A15G G29C C34A — lower, < 1e-05 s⁻¹
- C10G U56C — lower, < 1e-05 s⁻¹
- C10A A12U G37U G44U C50G A53G C68U — lower, < 1e-05 s⁻¹
- C11U A15G G37A G60A — lower, < 1e-05 s⁻¹
- G9A U31C A52U — lower, < 1e-05 s⁻¹
- A12G G44A C70A — lower, < 1e-05 s⁻¹
- G9U C16A A42C U54A A64G C70U — lower, < 1e-05 s⁻¹
- C8G G9U A14U A15U A64G C70U — lower, < 1e-05 s⁻¹
- C8U G32C C70U — lower, < 1e-05 s⁻¹
- A12G U31A U45A — 5.2-fold higher, 0.000216 ± 6.4e-05 s⁻¹
- C8G A15G U31A G40C G63C — lower, < 1e-05 s⁻¹
- G9C C10A G32A — lower, < 1e-05 s⁻¹
- A12U A14G U46A C50G — lower, < 1e-05 s⁻¹
- A12G A33C G37C G40C — lower, < 1e-05 s⁻¹
- G9C A15U U47G G51C G63C — lower, < 1e-05 s⁻¹
- G7U G35C G43A A48G — lower, < 1e-05 s⁻¹
- C8U C10A A39C — lower, < 1e-05 s⁻¹
- C10A A15C A42C — lower, < 1e-05 s⁻¹
- A12C A36G A42U U45A G51U — lower, < 1e-05 s⁻¹
- C8U U55G U65G — lower, < 1e-05 s⁻¹
- C10G A12U G13C G32A — lower, < 1e-05 s⁻¹
- C8U U54A C58G — lower, < 1e-05 s⁻¹
- G7U C68A — lower, < 1e-05 s⁻¹
- C8U A14G C50U C71G — lower, < 1e-05 s⁻¹
- C8U G43C A52U C70U — lower, < 1e-05 s⁻¹
- C11G C61A C68A — 2.1-fold higher, 8.83e-05 ± 2.3e-05 s⁻¹
- G9U C16G G29C A52U G59U — lower, < 1e-05 s⁻¹
- C8A C58U A64U C67G — lower, < 1e-05 s⁻¹
- C11U C16U C61U — lower, < 1e-05 s⁻¹
- C8G A42U U49C A52G — lower, < 1e-05 s⁻¹
- C10U G40A A52C G60U — lower, < 1e-05 s⁻¹
- A12U A15G U45C C50G C61A — lower, < 1e-05 s⁻¹
- C11A G51C G63U — lower, < 1e-05 s⁻¹
- C8A G13U A53G U65G — lower, < 1e-05 s⁻¹
- C8U G35A G63U — lower, < 1e-05 s⁻¹
- A12U A42G A64U — within error, 6.81e-05 ± 2.1e-05 s⁻¹
- A12U A36C G40U U46A C61G — lower, < 1e-05 s⁻¹
- A12C C16U A36C — lower, < 1e-05 s⁻¹
- C8G C11A G43A — lower, < 1e-05 s⁻¹
- G7U G44U A53U — lower, < 1e-05 s⁻¹
- G7U A33C G59U G60U — lower, < 1e-05 s⁻¹
- C11G G51C A64C — lower, < 1e-05 s⁻¹
- C8G A12G G51U C58U C67A C68U — 5.1-fold higher, 0.000214 ± 7.9e-05 s⁻¹
- C8G A33G A42G U55G — lower, < 1e-05 s⁻¹
- C10G A42G G43A — lower, < 1e-05 s⁻¹
- A12C U56G A64C — within error, 6.67e-05 ± 2.1e-05 s⁻¹
- G7C G29A A36U C71A — lower, < 1e-05 s⁻¹
- C11U U54C G66U — within error, 9.68e-05 ± 3.4e-05 s⁻¹
- G7U A14C U56C — lower, < 1e-05 s⁻¹
- A12G G59U G60U U65G — lower, < 1e-05 s⁻¹
- C10A G13U U56C U69G — lower, < 1e-05 s⁻¹
- C10A A15U A42C G44C U56A C67G C70G — lower, < 1e-05 s⁻¹

Variants of: B1
Assay: self-cleavage kobs at 10000 uM GlcN6P; higher = faster cleavage; RNA array
Conditions: with glucosamine-6-phosphate
Procedure, shortened: as §1

Point of comparison: C11A A12U G40U, “self-cleavage kobs at 10000 uM GlcN6P” value 6.34e-05 ± 1.6e-05 s⁻¹. Against it:
- C8U C11U A12U A36C A39G — lower, < 1e-05 s⁻¹
- C8A U46G U55A — lower, < 1e-05 s⁻¹
- C10G U56C — lower, < 1e-05 s⁻¹
- G9A U31C A52U — lower, < 1e-05 s⁻¹
- C8U U55G U65G — lower, < 1e-05 s⁻¹
- G9U C16G G29C A52U G59U — lower, < 1e-05 s⁻¹
